From the DeepSol protein solubility set

Test: soluble on expression in E. coli; label from the status in PepcDB or PDB records

Row | Sequence | soluble on expression in E. coli
1 | MGSDKIHHHHHHAQNNADDKYEILSLTDMFSLFKDSKNSVPQDYDEIYVPGYFYEPSFMYPSPLKKEFCCVAQWRIPNRNCKYLFLEDIFPQNKDSLKQASLELQKIKEKYGMRESAMYQDVPAGYNGIIAKWFTGRLFVLHCPRKLFNTVVSKKASLISIHKGRISDEKQITPDEGKFESSCFPQKGGMILIREDGCWYDDIKRNIDFLISPLINENFPTEFSKHVGREYSFLLEVVPKTGQIIPHLLLPKTLSTDEKMIVSYLEKQIRKFPENSFGPLITIDKKMLYGRYLKFIVKDEKFKIEDYLEY | not soluble
2 | MGSDKIHHHHHHAQQKVEILPFGNMDQWVTREIKESGIIGGNTKKVYAIGPTETIVGAKPYANKGGSPWGTSNVMARVSGITKTNTSVFPETRGDGFCARLDTRMESVKVLGIVDITVLAAGSMFLGTVHEPIKSTKNPNKMLQMGIPFTDRPSAIQFDYKVKMSDRENRIRATGFSKITDVPGKDFPAVILLLQKRWEDAKGNVYAKRIGTMVNYYYHSTDWKNGSKYDIMYGDITKDPAYKAHMMRLQASEYFTVNSKGESVPIHEVAWGEADDVPTHMILQFTSSHGGAYIGSPGNSLYIDNVKLIY | not soluble
3 | MGSDKIHHHHHHAQTYQQLSEKAIEYIEMDSLSKAEELLLQALKLEPKNAKNAMLFSNLGLVQRRLGEYDKALESYSFALNFAPLAVPILLDRAAINLEMGNTDRAYTDYCQVLDEDKQNKEALLMRAYIYVLRRDYPAARIDYNRLLEIDPQSYSGRLGLATLEQKEGKFKEALEILNKMITATPEDATLYIARADVEREMKHEDLALVDLEEAIRLNPSSADAYLLRGNIYLTQKKKALAKMDFEKAISLGIPPADLHEQLKQCK | not soluble
4 | MGSDKIHHHHHHCDDFLDSFPQDTVTNENFWKSKEDADKVLVDIYASLLPKDAIFFDEAMSDNAYLVWDWWGGAQQVANGSYTTSGEIPTNRWNGSYEVIRKCWFLLEGIEKIEDISEQDKNKIIGETYFMLAYNYYVLTSYFGDVPLVTKTLAIPESKQLVRTPKAEVVDYAINKLKEAAVMLEGLSQEKGRVTADACRFLIARMYLYNGDYSNVLETVKLLEGKYQLYREGDTPYEDLFSGVAENSCEVILSVVCDKRVGEIYTSHGGNGIMLLKGITGEDPYRGVTPSGSLVDAYPMADGRLIHEAGSSYDPKKPYEGRDPRFYQSIVYPTGQIKYLDVETGTVKERLYDPEDPTTVPEHQYNYSQPSATGYMWNKYIDYSVYAMNSVWDCTNDIIVFRYADVLLMKAEALLQTKGESAKEEVCNLIDQLRDRCSCGRVHRENYNSKDELMELLKNERRIELANEGLRYMDLIRWKDAEKNTIVTGVGLTGQMYGAYMRKDGVGKDDKTVDVDNTPRRYIETRYFNASKGYLFPIPQKERDLNPNLTQNPNW | not soluble
5 | MGSDKIHHHHHHCDLERYPLTDLSEETFWNSESNAELALTSLYRGSLTDGVEYNPSDWWSYHGMIMMEHLSDNAFDRRGENNPFFKISSGNLTADNAFIKRYWETSYKRIGYCNRFLVGIQNSSESEKKTRMIAEARFLRATQYFYLASYFKNVPLVENVLTGEEANNVTKTSQADILKWCVTEFTAAAADLPRFSAIPAGEAGRACKQAALAFLGRTCMLQKDWKSGAKAFHDIMELGDNAINANYQELFYPSTGTSNKENIFYIQYLENYLGTGLPQHALSAKDGGWSLVNPAADLYESYEFKDGTPFSYDDPRYDPSNLGKDRDPRLDYTIYYNGAIFMGTEYKMSPDYSAAKKEKLDYTSEASRTGFMMRKYFEESTPINDVQSANGLTPVIRYAEVLLGYLECLVEDNQTITQGILDETINAVRGRASVNMPPVTEVTPAKLREIVRHERRIELAMEGIRYWDIMRWGIAHEVLSQKIWGAPYPGSTQYATTTKEVDPTGNYRWYVGKRAFRNPTDYTWPIPQSEQNINPNLRD | not soluble
6 | MGSDKIHHHHHHCGVEEKTEVQLLKEMPKPKAMTIDPSLSQKEATEMVHAAQRFYAFWDTGKEELIPQTVTENFFDHTLPKGRPQGTEGLKFAAQNFRKIVPNIHCEIEDLLVVGDKVTARLSFTGTHNDKKIDFFAIDILHVKDGKITEDWHLEDNLTLKQQLGLIAEE | not soluble
7 | MGSDKIHHHHHHCPVNWVEFGGSCYWFSRDGLTWAEADQYCQLENAHLLVINSREEQDFVVKHRSQFHIWIGLTDRDGSWKWVDGTDYRSNYRNWAFTQPDNWQGHEQGGGEDCAEILSDGHWNDNFCQQVNRWVCEKRR | not soluble
8 | MGSDKIHHHHHHCSDNDSDLTIYIPDAGTAVKANFYIEDEPYVQTFNVAVTPETYPQLTEYGLPNDAVVHLQADPGKVDEYNAKNGTEYELLPEAAYDLTEEVLVKAGTPKSEEAVITVHAKGNIEAFKEYLLPVSITSVEGAVADHCCQTIYFIFRGSMDASNMELLDRTGWEALSASSEEPKEGDWGHSGLKEACLDGDLNTFWGTDWSTQHPQPPHWIVIDLKKTTHIQGFACQAREEGYDGPKEVTVEVSDDNATWTVAAKFKDIPAQGEFRSFLPAAVDGRYLKVTITAVNGGPHVTISELNLF | not soluble
9 | MGSDKIHHHHHHCTHKYKIEGTSSVNGLDGKMLYLKTLRDGEWTKLDSAEVVHGSFSMKGKIDSVQMTTLYMDDESVMPVVLESGKIVITISNTDLKAVGTPLNTALYDFIAKKNAMEESIGELERKETRMVMDGADLEEVHEQLLAEGDSLMKAMNQYVKTFISDNYENVLGPNVFIMLCSSLPYPIMTPQIDDIIKDAPYSFKSNKMVREFLTKAKENMQLIEEHQRMQQNVGSKK | not soluble
10 | MGSDKIHHHHHHDDSVFTVMDDPSAAKKPFEGVVNAGYLAQSGNTKSSSMTADSTLTWYGNTTAWSLWGNASNTSSNDERSSEKYAVGGRSRYNLTDMNYVFGQGSWLTDRYNGYQQRDVVTAGYGRQILNGPVHSLRFEFGPGVRYDEYTDGDTDTQPLGYASGTWAWQMTDNAKFSQGVSVFGAEDTTVNSESALNVAINAHFALKVAYNVTWNSEPPASAPEHTDRRTSLSLGYKM | not soluble
11 | MGSDKIHHHHHHEDDLSAKAWLKNMSQAMHDKQYKTSIIQLQADHIRPLVYIHGIVDNKEVALLEYLNGPPKNAVRVGNTVTFIEHDQPAYSVVAPRIQGIWPAALAGDLSQLEKGYQFVIGGRGRIAGRPGQMIRLLANDDNRYDAQVWIDMDTYLPLRFDSLNKEKQLLEQTMVIELIELTEPANILIEAAKQEWPAVMNQAERTDGKNWQFTWLPEGFDVVVRDHHRLIGIHEPVEYVALTDGLANISVYVARAGENPMPNELLIRNGLSMVVVKVGTLEVVAIGKVPSETLDKIANSLVLK | not soluble
12 | MGSDKIHHHHHHEEAEAHQKPVEIQPETVKIARNSELTIVPLYTPYQKYLKASLKTDDPEMDKKYYAKYVLSYIDEIGEQEKFSTADLKGNFMLQSTSYEQELLNRIDTLMKQHDKIKEVITENYIAAHKILPKKKSTIFIVPSNSDFPTMSESLAGVTGAAYKDAFVLYLDQTFDKNVLAYTIAHEYHHLILHDTPDFKISSVLKSVIVEGKADAFADRIVKGVSPPWDVPMDNTTKKHVAGLVNNYETTFNDVTFGNEQKDIPRWSNYILGRDILNHYLKSNPNLSIKEWTYKDEHEILKDYKYQNILE | not soluble
13 | MGSDKIHHHHHHENLYFQGMFRPQDDFTYLMPVHFGGGKFDPETLVTQKATALSLSFETERDLLENYIPEGFELLAPEVQVAFNKFTEINWLHGGQYNLINVAAPVRFHGKKDELDGAYTLVVWENKTAPILGGREQTGIPKIYADIEDLHIVRPHFATTVSYEGNTFLNMDFEATGSITGRDLDALKSQFLTMNTLGWRYIPKVGAPGAELSQFVLYPQGMEVETAEVGKGSLKWTELTPMQSPAQYYIVNSLASLPIKRVTQAVLVEGRAILRAMGARVIE | soluble
14 | MGSDKIHHHHHHENLYFQGMKQIPQDFRLIEDFFRTRRSVRKFIDRPVEEEKLMAILEAGRIAPSAHNYQPWHFLVVREEEGRKRLAPCSQQPWFPGAPIYIITLGDHQRAWKRGAGDSVDIDTSIAMTYMMLEAHSLGLGCTWVCAFDQALCSEIFDIPSHMTPVSILALGYGDPTVPPREAFNRKTIEEVVSFEKL | soluble
15 | MGSDKIHHHHHHEQTVKIGILSDMSGPYSDMGGPGSVAAAQLAIDECLAKECKGMKIELLSIDHQNKPDIGVQKAREWADVNKVNAIADLTNSAVALGVQKLTLDHDFVAMYSGPATTKLTNEDCSATGFHWMFDTYALAAGSAQAITKMGGKSWYFLTVDYAFGHSLEADSMAMVKQLGGTVAGSVRHPLNTADMSSFLLQAQSSKAQVVALANGAADTINAIKTAREFGIVQGGQQVVPLLIFLTDIRSLGLEIAQGLTFTEGFYWDQDDQARAFAARFQKAFKDRKPTMVQAGTYSSVLHYLHAVAAAKTTEAKAVSAKMREMPISDAVMRNAAIRPDGRVIHDMLLVKVKSPAESKGDWDFYTIQATIPAAEAFKPLANSACPTVKK | not soluble
16 | MGSDKIHHHHHHGCSRRDILDDYPVSGVEVRLDWSGVTEKLPEGVRIIFYPKDEKGRKIDTYLSVTGGEVKVPSGHYAVVIYNYDTETVLIRGEESYETIQAYTNFCKLGIAGTEKMVWGPDPLYVVNIDDLDIQNSEETLILKLKPKLVIRTYSFSIKVQGLSNVSNVIGSIGGMADHYFLGKAYAMCDDYPINIDLNVKAGKIEGVFTTFGLPEAIITRLEIKLPVMMNLMIIKVDNSVQEVKINITEAVQEPTGGGEGGEGEETKPPALVEVEIEDEIKVDDVETPPSGGGGIGGDVGDWDDETNVELPVG | not soluble
17 | MGSDKIHHHHHHGDDDDPVVPELNKLTKVSCYKDGASSPLFTADINYTSDGKISNINLGVDKLLFIYSDGKFSVTGIHSGEVIEEYTLSGNVITSKKISQENPYASNEIYVSDEYSYRYSGSNWVLTSWNARWPKEFGTGYEERSYPEYEKYTWENGNVVLYAQSLDSREMRYEYSVAEAPKNFPLRVIGSFSPVGFESVTPLNLLYGIQNRNLPIRAYTYTIPNQSEVKAEYKYTYTTVGDYITGMTIDENDGGTASSYKYTFEYNFAVK | not soluble
18 | MGSDKIHHHHHHGKGQQPSEENEDPKAKEILQGIWLDDETETPLMRIIGDTIYYSDAQSAPVYFKILKDTLYTYGKDVTHYQIDKQSEYSFWFHSLADNIIKLHKSEDPNDTLAFSFKSVEIIPTYTEVTKKDSVVMFDGVRYRAYVYINPSQMKVVKTTYSEDGISMDNIYYDNVMHICVYEGKKSLYAKDITKQMFVDVIPTDFLQQAILSDMNFIGIDRKGYHYQALVCIPESPVCNLVNLTISFDGKLNITAAKYK | not soluble
19 | MGSDKIHHHHHHGVDTKGPAGIDATELYASLDLSLLVGNSNVTTKSSELTGPTDGTEENMTKDERSVSDCYIAIFKYDSKTKNVGDFLTSYYSSNGSISESLIFKIPKDKSERTDLKIVVIANAAASVSKYGLASASQISYADLKGKTLVEVPNVFVKVGETEIAKGDGGTYPDNKGGVYVNISEKILGLDQPANTPVEVKLIQRTAAIMLQQFKILKSDGTEYDNVEIKGLSLLNSKTIGQVAGEVSSGEKLYGMQSVNGTTERLYSYENTSSSQPTTLKIDYVYNNGETGSCSFPIKSRLSEASDPKAEVWAGYLYKLTVKLTNAAVDVTVKCVTQDWVFNKDHELEFTF | not soluble
20 | MGSDKIHHHHHHHLKTQAISFVIHFAHRPVKRYDSPLSFLCSRRVQKIKIMLRATSLFITLGLSHSAWALVPPDYQEPPSDFSAEIEAGLQINTGNTESSSFNGRTKLVYDTDKFRQEGVFKAYFASDSEKTTSEKYDVQLQSSYKIYSGYIFARGDFTEDRFGSYTRISTVSTGYGFDAISGDSTKLSLEVGPGYRYNLPQVSESVPDPEADREIILRTAAKFEQKIHEYTSFNADLTAETGEANNTVTLDMSYKNTLFQDWAFKIGMNIKYTEVVPEGSKQTDTVTTFNLLYTFK | not soluble
